Reference: paper PMC4432310, “Different Ligands of the TRPV3 Cation Channel Cause Distinct Conformational Changes as Revealed by Intrinsic Tryptophan Fluorescence Quenching*” (The Journal of Biological Chemistry, 2015)

B1: human TRPV3 fused to C-terminal GFP and His8 tag (natural protein, UniProt Q8NET8 1-790, looked up)
chain: MKAHPKEMVPLMGKRVAAPSGNPAILPEKRPAEITPTKKSAHFFLEIEGFEPNPTVAKTSPPVFSKPMDSNIRQCISGNCDDMDSPQSPQDDVTETPSNPNSPSAQLAKEEQRRKKRRLKKRIFAAVSEGCVEELVELLVELQELCRRRHDEDVPDFLMHKLTASDTGKTCLMKALLNINPNTKEIVRILLAFAEENDILGRFINAEYTEEAYEGQTALNIAIERRQGDIAALLIAAGADVNAHAKGAFFNPKYQHEGFYFGETPLALAACTNQPEIVQLLMEHEQTDITSRDSRGNNILHALVTVAEDFKTQNDFVKRMYDMILLRSGNWELETTRNNDGLTPLQLAAKMGKAEILKYILSREIKEKRLRSLSRKFTDWAYGPVSSSLYDLTNVDTTTDNSVLEITVYNTNIDNRHEMLTLEPLHTLLHMKWKKFAKHMFFLSFCFYFFYNITLTLVSYYRPREEEAIPHPLALTHKMGWLQLLGRMFVLIWAMCISVKEGIAIFLLRPSDLQSILSDAWFHFVFFIQAVLVILSVFLYLFAYKEYLACLVLAMALGWANMLYYTRGFQSMGMYSVMIQKVILHDVLKFLFVYIVFLLGFGVALASLIEKCPKDNKDCSSYGSFSDAVLELFKLTIGLGDLNIQQNSKYPILFLFLLITYVILTFVLLLNMLIALMGETVENVSKESERIWRLQRARTILEFEKMLPEWLRSRFRMGELCKVAEDDFRLCLRINEVKWTEWKTHVSFLNEDPGPVRRTDFNKIQDSSRNNSKTTLNAFEEVEEFPETSV
notes: human TRPV3 (transient receptor potential vanilloid 3), full-length; theoretical mass of the monomer printed as 90.6 kDa; A PreScission cleavage site lies between TRPV3 and GFP-His8; The fusion is uncleaved in the FSEC runs; also called hTRPV3-GFP; hTRPV3; source: Sf9 insect cells (baculovirus), detergent-solubilized crude membranes, not purified; not shown: GFP, C-terminal, kept
B2: human TRPV3, detergent-purified, GFP-His tag cleaved off (natural protein, UniProt Q8NET8 1-790, looked up)
chain: MKAHPKEMVPLMGKRVAAPSGNPAILPEKRPAEITPTKKSAHFFLEIEGFEPNPTVAKTSPPVFSKPMDSNIRQCISGNCDDMDSPQSPQDDVTETPSNPNSPSAQLAKEEQRRKKRRLKKRIFAAVSEGCVEELVELLVELQELCRRRHDEDVPDFLMHKLTASDTGKTCLMKALLNINPNTKEIVRILLAFAEENDILGRFINAEYTEEAYEGQTALNIAIERRQGDIAALLIAAGADVNAHAKGAFFNPKYQHEGFYFGETPLALAACTNQPEIVQLLMEHEQTDITSRDSRGNNILHALVTVAEDFKTQNDFVKRMYDMILLRSGNWELETTRNNDGLTPLQLAAKMGKAEILKYILSREIKEKRLRSLSRKFTDWAYGPVSSSLYDLTNVDTTTDNSVLEITVYNTNIDNRHEMLTLEPLHTLLHMKWKKFAKHMFFLSFCFYFFYNITLTLVSYYRPREEEAIPHPLALTHKMGWLQLLGRMFVLIWAMCISVKEGIAIFLLRPSDLQSILSDAWFHFVFFIQAVLVILSVFLYLFAYKEYLACLVLAMALGWANMLYYTRGFQSMGMYSVMIQKVILHDVLKFLFVYIVFLLGFGVALASLIEKCPKDNKDCSSYGSFSDAVLELFKLTIGLGDLNIQQNSKYPILFLFLLITYVILTFVLLLNMLIALMGETVENVSKESERIWRLQRARTILEFEKMLPEWLRSRFRMGELCKVAEDDFRLCLRINEVKWTEWKTHVSFLNEDPGPVRRTDFNKIQDSSRNNSKTTLNAFEEVEEFPETSV
notes: human TRPV3 (transient receptor potential vanilloid 3), full-length; theoretical mass of the monomer printed as 90.6 kDa; also called hTRPV3; detergent-purified hTRPV3; source: Sf9 insect cells (baculovirus), purified (GFP trap, PreScission cleavage, SEC) in DDM and CHAPS; not shown: GFP, C-terminal, cleaved; His8, C-terminal, cleaved

Assays:
[1] = target: the molecule itself; assay: SEC; fluorescence detection SEC (FSEC) of detergent-solubilized crude Sf9 membranes on Superose 6 10/300 GL; buffer A (200 mM NaCl, 50 mM Tris, pH 7.5) with DM, DDM or LDAO at ~1.5 x CMC; oligomer judged from the retention volume
[2] = target: the molecule itself; assay: SEC; UV detection SEC of hTRPV3 eluted from the GFP trap, Superose 6 10/300 GL; buffer B (100 mM NaCl, 10 mM Tris, pH 7.5) with 0.03% DDM and 0.1% CHAPS

Protein	stoichiometry N [1]	stoichiometry N [2]
B1	4	–
B2	–	4
